Experimental findings from article PMC2744139 (Nature structural & molecular biology, 2009) are described below.

What is called Kd is the equilibrium constant for the complex coming apart.

The target of this experiment is T1, Cdc13 full-length (FL) (S. cerevisiae, UniProt P32797 1-924).
T1 sequence: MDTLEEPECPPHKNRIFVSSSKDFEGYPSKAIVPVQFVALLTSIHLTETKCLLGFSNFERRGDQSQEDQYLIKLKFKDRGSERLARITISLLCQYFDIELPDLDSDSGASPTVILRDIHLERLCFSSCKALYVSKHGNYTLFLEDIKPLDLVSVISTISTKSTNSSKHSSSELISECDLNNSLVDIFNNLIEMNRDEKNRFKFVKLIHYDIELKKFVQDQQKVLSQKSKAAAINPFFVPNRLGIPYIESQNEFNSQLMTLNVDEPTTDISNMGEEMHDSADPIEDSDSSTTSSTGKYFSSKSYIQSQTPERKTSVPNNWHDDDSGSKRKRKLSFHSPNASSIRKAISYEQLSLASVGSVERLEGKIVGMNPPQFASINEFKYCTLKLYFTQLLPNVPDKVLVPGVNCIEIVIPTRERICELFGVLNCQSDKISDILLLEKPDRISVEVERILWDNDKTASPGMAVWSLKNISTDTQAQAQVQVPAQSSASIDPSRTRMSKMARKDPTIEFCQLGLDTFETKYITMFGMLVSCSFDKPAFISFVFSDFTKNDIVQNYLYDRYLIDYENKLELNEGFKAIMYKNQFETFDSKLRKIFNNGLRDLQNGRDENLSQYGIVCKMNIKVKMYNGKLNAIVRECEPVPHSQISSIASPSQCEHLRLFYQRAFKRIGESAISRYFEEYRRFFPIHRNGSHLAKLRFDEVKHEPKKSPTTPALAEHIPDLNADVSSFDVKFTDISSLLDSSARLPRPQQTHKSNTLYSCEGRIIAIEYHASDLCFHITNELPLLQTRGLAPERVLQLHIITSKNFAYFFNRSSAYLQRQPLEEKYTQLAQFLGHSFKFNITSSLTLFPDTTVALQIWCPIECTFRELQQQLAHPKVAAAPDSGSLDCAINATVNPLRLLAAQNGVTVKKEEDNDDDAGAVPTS
The experiment is described as follows: fluorescence polarisation.

B1: Hsp82 (yeast Hsp90 molecular chaperone) (natural protein)
chain: not shown
Turning to B1, the Kd was around 325 nM.
